Consider two molecules from article PMC9917443.

For the assay, the target named is purified recombinant SD1/2 protein. The assay is described as follows: ITC; peptide (300 μM in the syringe) injected into SD1/2 protein (30 μM) in the cell; 25°C; 20 mM NaPi (pH 6.8), 50 mM NaCl, 0.5 mM EDTA; one-site binding model. For orientation: ITC needs no label: the signal is the heat of the interaction.

B1: APP17 (peptide)
peptide: Ac-DDSDVWWGGADTDYADG-NH2
Take B1: the Kd is 543 nM and the stoichiometry N worked out at 1.05.

B2: sc-APP17 (peptide)
peptide: Ac-DWGADTVSGDGYDAWDD-NH2
Regarding B2, the Kd was more than 300000 nM.

For orientation: Kd means the equilibrium constant for the complex coming apart. The stoichiometry N is the number of molecules, sites or subunits per partner or assembly.
